Assays:
Experiment in all cases: fluorescence polarisation
[1] = molecular target: TAMRA-labeled CoV-2 nsp1 C-K R124A/K125A (SARS-CoV-2) (UniProt P0DTD1)
[2] = molecular target: TAMRA-labeled CoV-2 nsp1 C-K R99A (SARS-CoV-2) (UniProt P0DTD1)
[3] = molecular target: TAMRA-labeled CoV-2 nsp1 C-K, wild type (SARS-CoV-2) (UniProt P0DTD1)

purified ribosomes (crude 80S from HeLa cell lysate) (from UniProt P15880;P23396;P62847;P63244) (complex)
fold increase in Kd against WT nsp1 [1]: 2 fold | fold increase in Kd against WT nsp1 [2]: 1.6 fold | Kd [3]: 539 nM
